Measured values taken from patent publication US6830937 (Bristol-Myers Squibb, dated 2004).
Values belong to the molecule of their own block, whether it stands above or below them.

Key:
CD28 receptor [1] = molecular target: T1, CD28 receptor (human, UniProt P10747 19-220); assay: flow cytometry, direct staining of CD28+ CHO cells
CD28 receptor [2] = molecular target: T1, CD28 receptor; assay: flow cytometry, direct staining of phytohemagglutinin-stimulated T cells
CD28 receptor [3] = molecular target: T1, CD28 receptor; assay: cell-based or functional assay
B7 antigen [4] = molecular target: B7 antigen (UniProt P33681); assay: flow cytometry, direct staining of 5E1 cells after preincubation with unlabeled BB-1
B7 antigen [5] = molecular target: B7 antigen (UniProt P33681); assay: flow cytometry, direct staining of Raji cells after preincubation with unlabeled BB-1
B7 antigen [6] = molecular target: B7 antigen (UniProt P33681); assay: flow cytometry, direct staining of Jijoye cells after preincubation with unlabeled BB-1
B7 antigen [7] = molecular target: B7 antigen (UniProt P33681); assay: flow cytometry, direct staining of T51 cells after preincubation with unlabeled BB-1
B7 antigen [8] = molecular target: B7 antigen (UniProt P33681); assay: flow cytometry, direct staining of 5E1 cells (B-LCL), no unlabeled BB-1
B7 antigen [9] = molecular target: B7 antigen (UniProt P33681); assay: flow cytometry, direct staining of T51 cells (B-LCL), no unlabeled BB-1
B7 antigen [10] = molecular target: B7 antigen (UniProt P33681); assay: cell-based or functional assay
B7 antigen [11] = molecular target: B7 antigen (UniProt P33681); assay: flow cytometry, direct staining of Daudi cells (BL), no unlabeled BB-1
B7 antigen [12] = molecular target: B7 antigen (UniProt P33681); assay: flow cytometry, direct staining of Raji cells (BL), no unlabeled BB-1
[13] = molecular target: B7Ig fusion protein (human) [IgG part: P01857]; assay: competition of 125I-B7Ig binding to immobilized CD28Ig
B7 antigen [14] = molecular target: B7 antigen (UniProt P33681); assay: flow cytometry, direct staining of Jijoye cells (BL), no unlabeled BB-1
B7 antigen [15] = molecular target: B7 antigen (UniProt P33681); assay: flow cytometry, direct staining of Daudi cells after preincubation with unlabeled BB-1

mean channel fluorescence (linear fluorescence units) (CD28 receptor [1]): 116 | mean channel fluorescence (linear fluorescence units) (CD28 receptor [2]): 11.3 | [3H]-T incorporation by PBL, +Anti-CD3, Exp. 1, mAb 9.3 (immob.) (CD28 receptor [3]): 137000 cpm | [3H]-T incorporation by PBL, +Anti-CD3, Exp. 1, mAb 9.3 (soln.) (CD28 receptor [3]): 156000 cpm | [3H]-T incorporation by PBL, +Anti-CD3, Exp. 2, mAb 9.3 (soln.) (CD28 receptor [3]): 75800 cpm | [3H]-T incorporation by PBL, -Anti-CD3, Exp. 1, mAb 9.3 (immob.) (CD28 receptor [3]): 100 cpm | [3H]-T incorporation by PBL, -Anti-CD3, Exp. 1, mAb 9.3 (soln.) (CD28 receptor [3]): 300 cpm | [3H]-T incorporation by PBL, -Anti-CD3, Exp. 2, mAb 9.3 (soln.) (CD28 receptor [3]): 400 cpm | half-maximal inhibition of CD28-mediated adhesion (PM lymphoblastoid cells to CD28+ CHO cells) (CD28 receptor [3]): 10 nM | inhibition of adhesion of B7 transfected COS cells to CD28+ CHO cells when EDTA was omitted (CD28 receptor [3]): 40% | reduction of adhesion of T51 cells to CD28+ CHO cells by mAb 9.3 alone (no EDTA) (CD28 receptor [3]): 62% | reduction of adhesion of T51 cells to CD28+ CHO cells by mAb 9.3 plus EDTA (CD28 receptor [3]): 93%
Molecule: monoclonal antibody (mAb) 9.3 (anti-CD28)

mean fluorescence, +COLD (B7 antigen [4]): 2.4 linear units | mean fluorescence, +COLD (B7 antigen [5]): 2.8 linear units | mean fluorescence, +COLD (B7 antigen [6]): 2.8 linear units | mean fluorescence, +COLD (B7 antigen [7]): 3 linear units | mean fluorescence, -COLD (B7 antigen [8]): 13 linear units | mean fluorescence, -COLD (B7 antigen [9]): 16.4 linear units | [3H]-T incorporation by PHA blasts stimulated with B7+ CHO cells (40:1), BB-1 at 10 µg/ml (B7 antigen [10]): 98300 cpm | inhibition of adhesion of Jijoye cells to CD28+ CHO cells (B7 antigen [10]): 60% | mean fluorescence, -COLD (B7 antigen [11]): 6.4 linear units | mean fluorescence, -COLD (B7 antigen [12]): 7.1 linear units | IC50 [13]: 140 nM | mean fluorescence, -COLD (B7 antigen [14]): 17.8 linear units | mean fluorescence, +COLD (B7 antigen [15]): 2.8 linear units
Molecule: mAb BB-1 (anti-B7) (antibody)

[3H]-T incorporation by PHA blasts stimulated with B7+ CHO cells (40:1), 9.3 Fab at 10 µg/ml (CD28 receptor [3]): 132000 cpm
Molecule: mAb 9.3 (Fab fragments)

adhesion of 51Cr-labeled T51 cells to CD28+ CHO cells relative to CD28- CHO cells, with EDTA (CD28 receptor [3]): 17 fold | adhesion of 51Cr-labeled T51 cells to CD28+ CHO cells relative to CD28- CHO cells, without EDTA (CD28 receptor [3]): 5.5 fold
B1: B7 antigen (ligand, UniProt P33681 35-288, looked up)
chain: VIHVTKEVKEVATLSCGHNVSVEELAQTRIYWQKEKKMVLTMMSGDMNIWPEYKNRTIFDITNNLSIVILALRPSDEGTYECVVLKYEKDAFKREHLAEVTLSVKADFPTPSISDFEIPTSNIRRIICSTSGGFPEPHLSWLENGEELNAINTTVSQDPETELYAVSSKLDFNMTTNHSFMCLIKYGHLRVNQTFNWNTTKQEHFPDNLLPSWAITLISVNGIFVICCLTYCFAPRCRERRRNERLRRESVRPV
